# Assay results published in the supplement of paper PMC9170038.
# System: MS2 coat protein
# Experiment: apparent KD of MS2 coat protein; designed switch direction (-1 OFF switch, 1 ON switch): -1; higher = weaker reporter binding
# How it was run: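 For each design, the apparent KD is the median over clusters of curves fitted to normalised cluster fluorescence. Clusters held RNA switches with common flanks, transcribed on Illumina chips by stalled E. coli RNA polymerase. These were titrated with SNAP-549-labelled MS2 coat protein, doubling from 0.7 or 1.5 nM to 3 µM, without input, with 200 uM small-molecule ligand, or with an oligonucleotide input.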
# [1] = Eterna round: R95, input ligand: FMN 200 uM
# [2] = Eterna round: R95, input ligand: microRNA oligo, concentration not stated
# [3] = Eterna round: R95, input ligand: none
# [4] = input ligand: microRNA oligo, concentration not stated
Sequence,apparent KD of MS2 coat protein (input ligand: FMN 200 uM) [nM],apparent KD of MS2 coat protein (input ligand: none) [nM],apparent KD of MS2 coat protein [1] [nM],apparent KD of MS2 coat protein [2] [nM],apparent KD of MS2 coat protein [3] [nM],apparent KD of MS2 coat protein [4] [nM]
"ACAAGCUUUGUUGUGGGUGACAUGAGGAUCACCCAUGUUUGCCACGUCUUGUGGGCCCGGGCCCGCGGCCCGGGCCC [-42.9, -63.9, A 13%] (Eterna round: R97, puzzle: Sensor, turn-off variant 1)",50.3,55.1,,,,
"AGUACUAACACGAAAGUGUUAGUACAAUAAGCUUGUGAAACAUGAGGAUCACCCAUGUCCUCAUAGGCUCGUCUUAU [salish99_TOv2_r3_054] (puzzle: Sensor v3, turn-off variant 2)",,,26.3,607,18.3,
CUAUUACGAGGAUAUGAUUUAAAUAACAUGAGGAUCACCCAUGUUUUUACGUUAUUUUAUUUAGAAGGCGUAUAGU [JR_E5_Sub029] (puzzle: Exclusion 5),,,,42,,
"AAAUAGCGAGGAUAUACUGUAUACGAAAGUAUACGCAUGGCACAUGAGGAUCACCCAUGUAGAAGGCGCUAUAA (Eterna round: R97, puzzle: Exclusion 2)",43.4,22.3,,,,
"CCUCCGGUAUAGGAUAUUUAUGAGCUCAGUUCUAAAGAAGGGUAUACAUGAGGAUCACCCAUGUGUGAAGUUAU [Eternabot (L2) Solution 20] (Eterna round: R97, puzzle: Exclusion 6)",52.5,49.9,,,,
"GGUCCUUCUGUCAGGAUAUCCAGUAUCAGACAGCAGGAGAAGGGACAUGAGGAUCACCCAUGUAAUAAGAAGAA [Onrean] (Eterna round: R97, puzzle: Brourd's mod of Exclusion 4)",51.9,27.6,,,,
UGAUCUUUUGUUAGGAUAUGCUGGGUUUUUUCUCAGCAGAAGGGACAUGAGGAUCACCCAUGUUCUCUCUUUUU [Magic-08] (puzzle: Brourd's mod of Exclusion 4),,,,9.72,,
GGGUGUCCAGUGAGGAUAUCCAGCGCUCAGGCGCAGGAGAAGGCACAUGAGGAUCACCCAUGUAGCUGAAGAAA [Geenra] (puzzle: Brourd's mod of Exclusion 4),,,116,30.9,41.7,
AAAUUCUGAGGAUAUCGAUGUUUGUACAUGAGGAUCACCCAUGUCCUUUUUAUUUUUUCUCGAGAAGGCAGUGUAU [JR_E5_Sub100] (puzzle: Exclusion 5),,,,34.2,,
"GUUCGUGAGAAGGAUAUGAUUCUGGAACAAGAGUUAGAAGGUUUCACAUGAGGAUCACCCAUGUCUAGAAAACC [Eternabot (Original) Solution 32] (Eterna round: R97, puzzle: Exclusion 6)",12.2,10.7,,,,
AAGAAACGAGGAUAUACAGUUGAGUGAGGGAGGGUAGUGUUACAUGAGGAUCACCCAUGUAGAAGGCGUGAGAG [JR_Exclu2_Sub090] (puzzle: Exclusion 2),,,24.8,19.3,25,
"UUAUUAUAUGUAGGAUAUGCGUAUUAUUGUUAUGCAGAAGGACAUGAGGAUCACCCAUGUAUAUUAUUGUUAUAUAUUGUAUAU [Title] (Eterna round: R96, puzzle: Exclusion NG 1)",28.9,21.7,,,,19.8
"UAAUACAAGCAAAGAUCCUACAUGAGGAUCACCCAUGUGUUCGUCUUAUAAAGUACUAUCACGAAAGUGAUAGUACA [Mat - Sensor v3 - turn-off var 1 - Eli Mod - D79] (puzzle: Sensor v3, turn-off variant 1)",,,81.6,12.3,110,
"GCUGGAAAAGGAUAUACAUAACGUGCGUCGGCACGAGACCUACAUGAGGAUCACCCAUGUAGAAGGUUUCCAGC [EX2 #74] (Eterna round: R97, puzzle: Exclusion 2)",20.9,13.6,,,,
"UAUAUAUAGUAAGGAUAUGUAAUUAUUUUAGAAACAGAAGGUACUGACAUGAGGAUCACCCAUGUUUUAGUGUGGGCAUGUAGA [JMF's solution 45] (Eterna round: R96, puzzle: Exclusion NG 1)",,,,,,69.9
"GCGCAAAGCUAGGAUAUCCAGGGAUCUUCCCGCGGAGAAGGAGCCACAUGAGGAUCACCCAUGUGGUGAUCCUG [eternacac ex6r4 sub7] (Eterna round: R97, puzzle: Exclusion 6)",14.9,15.4,,,,
"GCACGGAGUGUAGGAUAUCUGUGCGAUUAGCUCAGAGAAGGACACAUGAGGAUCACCCAUGUGUUCCACGGAAACGUACCGUGC [Eli exng1 - 050] (Eterna round: R96, puzzle: Exclusion NG 1)",11.2,12.5,,,,8.87

Sequence,apparent KD of MS2 coat protein (input ligand: FMN 200 uM) [nM],apparent KD of MS2 coat protein (input ligand: none) [nM],apparent KD of MS2 coat protein [1] [nM],apparent KD of MS2 coat protein [2] [nM],apparent KD of MS2 coat protein [3] [nM],apparent KD of MS2 coat protein [4] [nM]
"GGUUCGAGUGUGAGGAUAUGCUGGUCCUUGGAUCAGCAGAAGGCACAUGAGGAUCACCCAUGUGGUAACGGACC [Mat - Exclusion 4 - Eli Mod - D35] (Eterna round: R97, puzzle: Brourd's mod of Exclusion 4)",263,331,,,,
"CCGCUGUGAGGAUAUUAGUAGUAGUCAGAAUAGACUAUUACUGAGAAGGCACAUGAGGAUCACCCAUGUAGCGG [Eli x4 4.25] (Eterna round: R97, puzzle: Exclusion 4)",24.8,28.9,,,,
AAGAAACGAGGAUAUACAAUUAAGAGAGAGAAGGAAAUGAGACAUGAGGAUCACCCAUGUAGAAGGCGUAAGAG [JR_Exclu2_Sub083] (puzzle: Exclusion 2),,,28,31.5,28.2,
"GGUAUACAUGAGGAUCACCCAUGUCAGGAUAUGGAAACAUAUGCCGAAAGGCAUAUGGCCAGAAGGGACAAUAG [AK-MS2ROC-r4-exclusion1-5.1] (Eterna round: R97, puzzle: Exclusion 1)",117,77.5,,,,
"AAUUUGCAAGCGAGAUCCCACAUGAGGAUCACCCAUGUGCUCGUCUUAUAAGGUACUGUGACGAGAGUCACGGUACC [Mat - Sensor, turn-off var - Eli Mod - D91] (Eterna round: R97, puzzle: Sensor, turn-off variant 1)",15.6,12.1,,,,
"CUGAGCAGACGGAGAUCCAACAUGAGGAUCACCCAUGUCUCAAAAGCUUUUUGCUUGUCUUAUCCUCCUCUGUUCAC [Esqutian] (Eterna round: R96, puzzle: Sensor v3, turn-off variant 1)",13.6,16.1,,,,222
"CGCAUGUGAGGAUAUUAGUAGUAGUCAGAAUAGACUAUUACUGAGAAGGUACAUGAGGAUCACCCAUGUAUGCG [Eli x4 4.22] (Eterna round: R97, puzzle: Exclusion 4)",38.9,21.5,,,,
"UGUGUGAGACAGGAUAUGCCGGAUGUAUUACUGGUAGAAGGGUCUACAUGAGGAUCACCCAUGUGGCCGGCCGG [Ex6 #83] (Eterna round: R97, puzzle: Exclusion 6)",31.3,21.1,,,,
"GAUCAACAUGAGGAUCACCCAUGUGAGGAUAUUGACUUGCUCACUUUCCCAUCAGAGUCGAGAAGGCGCAUCUG [1986#21] (Eterna round: R97, puzzle: Exclusion 1)",28.1,40.8,,,,
"AGUACUUACACGAAAGUGUAAGUACAAUAAGCUUGUGGAACAUGAGGAUCACCCAUGUCCUCAUAAGCUCGUCUUAU [Mat - Sensor v3 - Turn-off var 2 - D28] (puzzle: Sensor v3, turn-off variant 2)",,,14.5,75.2,14.3,
"AGAUAGUGGUGAGGAUAUCAGAAUAGAAAGAAAUGAGAAGGCGCACAUGAGGAUCACCCAUGUGAGGUCUUGAGACUACAUGGU [Prohibition 39 - Jieux - Exclusion NG 1] (Eterna round: R96, puzzle: Exclusion NG 1)",,,,,,15.7
"UAUUAGCAAGCGAGAUCCCACAUGAGGAUCACCCAUGUGCUCGUCUUAUAAAAGACUGUGACGAUAGUCACGGUCAC [Mat - Sensor, turn-off var - Eli Mod - D22] (Eterna round: R97, puzzle: Sensor, turn-off variant 1)",14.2,13.1,,,,
CCAUACCGAGGAUAUACAUGAGGAUCACCCAUGUCAAAACCACGUGUACGGCGGUCUUGUAGAAGGCGGAAAUA [Onbisodi] (puzzle: Exclusion 3),,,,9.99,,
"UUAGGAUCAGGAUAUGAUGUUUUUUACAUGAGGAUCACCCAUGUUGAUCCUGAUUCAACAUCAGAAGGGAUAAUUU [JR_Ex5_Sub081] (Eterna round: R97, puzzle: Exclusion 5)",85.2,21.4,,,,
"GAGAACUGAGGAUAUACAUGAGGAUCACCCAUGUGAAGAAGAAAGUAGUGAUGGUUGGGUAGAAGGCAGAGAGA [JR_Ex3_Sub065] (Eterna round: R97, puzzle: Exclusion 3)",52.4,46.3,,,,
"UCAGGCUAUUAAACCGCCGACAUGAGGAUCACCCAUGUACUUCAUGCGCUAGCUUGCUCGUCUACCUCAAGGAUCCG [Eternabot (L2) Solution 24] (Eterna round: R97, puzzle: Sensor, turn-off variant 1)",67.7,68.6,,,,
UUUAGUUCAGGAUAUGUAGAUUUUAACAUGAGGAUCACCCAUGUAGAUCCUGAAUUAACUACAGAAGGGAACAUUG [Exclusion 5: 2:b] (puzzle: Exclusion 5),,,50.1,18.2,16.5,
